Assay [1] deals with human KLK7 (SEQ ID NO: 4 plus a C-terminal FLAG tag) (human, UniProt P49862 30-253). Description: cell-based or functional assay.
Assay [2] concerns the target cyano KLK7 (SEQ ID NO: 6 plus a C-terminal FLAG tag) (cynomolgus monkey, UniProt P49862 30-253 (human entry)). Description: cell-based or functional assay.
Another assay deals with T1, huKLK11 (human, UniProt Q9UBX7 54-282, limits assumed).
T1 sequence (looked up): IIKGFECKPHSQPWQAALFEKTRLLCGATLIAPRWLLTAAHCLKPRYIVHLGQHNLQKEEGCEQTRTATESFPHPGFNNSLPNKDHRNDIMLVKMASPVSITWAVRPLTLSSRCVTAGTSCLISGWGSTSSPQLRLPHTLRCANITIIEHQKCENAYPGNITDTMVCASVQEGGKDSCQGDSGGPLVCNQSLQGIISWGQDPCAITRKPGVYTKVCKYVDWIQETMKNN
Description: SPR (BIAcore T200), as for Table 1.

The target in the next assay is T2, human KLK5 (human, UniProt Q9Y337 67-293).
T2 construct: also called huKLK5; KLK5 AMC
T2 sequence: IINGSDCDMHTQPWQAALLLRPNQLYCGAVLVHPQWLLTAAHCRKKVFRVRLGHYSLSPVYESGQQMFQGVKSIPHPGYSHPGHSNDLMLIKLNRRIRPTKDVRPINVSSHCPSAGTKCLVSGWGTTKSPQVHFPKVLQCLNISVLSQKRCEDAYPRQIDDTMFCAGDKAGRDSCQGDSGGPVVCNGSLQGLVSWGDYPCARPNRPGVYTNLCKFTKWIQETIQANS
Description: SPR (BIAcore T200), as for Table 1. (In general: SPR reads the build-up and loss of mass on a sensor chip optically.)

The target in another assay is huKLK1 (human, UniProt P06870 25-262, limits assumed). The assay can be described thus: SPR (BIAcore T200), as for Table 1.
Chain of huKLK1 (P06870 25-262 limits assumed): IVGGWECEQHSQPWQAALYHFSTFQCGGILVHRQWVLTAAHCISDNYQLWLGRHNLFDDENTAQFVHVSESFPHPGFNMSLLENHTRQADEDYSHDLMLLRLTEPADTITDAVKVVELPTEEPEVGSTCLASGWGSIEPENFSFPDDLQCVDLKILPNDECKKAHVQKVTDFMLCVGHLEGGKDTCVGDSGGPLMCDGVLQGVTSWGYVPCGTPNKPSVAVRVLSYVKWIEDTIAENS
The target in the next assay is huKLK4 (human, UniProt Q9Y5K2 31-254, limits assumed). The assay can be described thus: SPR (BIAcore T200), as for Table 1.
Chain of huKLK4 (Q9Y5K2 31-254 limits assumed): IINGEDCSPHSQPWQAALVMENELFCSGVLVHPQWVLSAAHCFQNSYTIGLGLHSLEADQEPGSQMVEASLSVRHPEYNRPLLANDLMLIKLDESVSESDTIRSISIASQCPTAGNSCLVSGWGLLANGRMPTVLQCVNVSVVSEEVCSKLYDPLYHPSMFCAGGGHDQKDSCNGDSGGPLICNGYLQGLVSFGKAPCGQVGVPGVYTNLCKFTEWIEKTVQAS
Another assay deals with T3, human KLK7 (human, UniProt P49862 30-253).
T3 construct: Antigen injected in SPR; also called hu KLK7; huKLK7
T3 sequence (P49862 30-253): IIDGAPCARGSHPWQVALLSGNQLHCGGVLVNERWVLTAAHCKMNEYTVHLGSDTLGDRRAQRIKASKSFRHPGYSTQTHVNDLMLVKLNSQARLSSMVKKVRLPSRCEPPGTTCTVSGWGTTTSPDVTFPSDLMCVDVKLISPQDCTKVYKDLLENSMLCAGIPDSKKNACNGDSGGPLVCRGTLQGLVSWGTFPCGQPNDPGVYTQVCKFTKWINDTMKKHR
Description: SPR BIAcore T200, antibody on protein A chip, 25 C. As to the method:
(§1) The binding affinity of the antibodies was determined by BIAcore™ T200 machine. Rabbit antibodies were recombinantly expressed. For kinetics measurements, antibodies were captured on research grade protein A chip (GE Healthcare, USA) to achieve approximately 300 RU. Ten-fold serial dilutions of human and cyano KLK7 were injected in HBS-P buffer at 25° C. with a flow rate of 30 μL/min. Association rates (ka) and dissociation rates (kd) were calculated using a 1:1 Langmuir binding model (BIAcore™ T200 Evaluation Software version 2.0). The equilibrium dissociation constant (KD) was calculated as the ratio kd/ka.

The next assay addresses T4, cynomolgus monkey KLK7 (cynomolgus monkey, UniProt P49862 30-253 (human entry)).
T4 construct: Antigen injected in SPR; also called Cy KLK7; cyno KLK7
The assay can be described thus: SPR BIAcore T200, antibody on protein A chip, 25 C. As to the method:
as §1

These results are taken from patent US20240084042A1 (Genentech, published 2024).

What is called koff is a measure of how fast the partners let go of each other.

Chain of human KLK7 (SEQ ID NO: 4 plus a C-terminal FLAG tag) (P49862 30-253): as above
T4 sequence (P49862 other isoform, or with tags, fused parts or gaps): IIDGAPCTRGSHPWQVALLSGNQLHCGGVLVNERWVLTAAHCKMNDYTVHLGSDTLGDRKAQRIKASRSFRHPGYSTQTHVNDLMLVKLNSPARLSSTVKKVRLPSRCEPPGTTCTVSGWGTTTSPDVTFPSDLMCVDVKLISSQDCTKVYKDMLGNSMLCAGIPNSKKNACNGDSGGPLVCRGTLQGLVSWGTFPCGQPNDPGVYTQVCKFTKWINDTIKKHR
Chain of cyano KLK7 (SEQ ID NO: 6 plus a C-terminal FLAG tag) (P49862 other isoform, or with tags, fused parts or gaps): as above

B1: 14H11 (antibody, V domains shown)
VH: QSLEESGGDLVKPGASLTLTCTASGFSFSSSYYMCWVRQAPGKGLEWIASIYAGSSGAPYYAGWAKGRFTISKTSSTAVTLQMSSLTAADTATYFCAREGFAETGGYGYAAYFNLWGPGTLVTVSS
VL: AIEMTQSPPSLSASVGETVRIRCLASEDIASSVSWYQQKPGKPPTLLIYGASNLESGVPPRFTGSGSGTDYTLTIGGVQAEDAATYYCLGGYSYSSTGTAFGAGTKVEIK
notes: Recombinant rabbit anti-KLK7 monoclonal antibody, expressed in Expi293 cells, protein A purified, bivalent; also called rb.14H11
For B1, the “IC50, KLK7 direct functional assay (Mca peptide substrate), bivalency not accounted for” value in assay [1] stood at 0.11 nM; in assay [2], 0.15 nM. In addition, the binding result with huKLK11, in the assay with human KLK5, with huKLK1 and with huKLK4 was “no binding” in each case. The koff with human KLK7 and in the assay with cynomolgus monkey KLK7 was less than 1e-06 s⁻¹ each time.
